Laboratory results as given in patent US8497072.
Where a chain is given by its changes, count along the chain named. Each block holds one binder with its values, some of them ahead of it.

Target: soluble amyloid precursor protein alpha (UniProt P05067)
Assay: sandwich ELISA, EC50 of this antigen divided by EC50 of Aβ(1-42) globulomer

selectivity factor (EC50 ratio against Aβ(1-42) globulomer): > 100 fold
B1: monoclonal antibody 8C5 (antibody, V domains shown)
VH: EVQLVESGGGLVQPGGSLKLSCTASGFTFSSYGMSWVRQTPDKRLELVASIKNNGGSTYYPDSLKGRFTISRDNAKNTLYLQMSSLKSEDTAMYYCASGDYWGQGTTLTVSS
VL: DVVMTQTPLSLPVSLGDQASISCRSSQSLVHSNGDTFLHWYLQKPGQSPKLLIYKVSNRFSGVPDRFSGSGSGTDFTLKISRVEAEDLGIYFCSQSIHVPWTFGGGTKLEIKR

selectivity factor (EC50 ratio against Aβ(1-42) globulomer): > 100 fold
B2: monoclonal antibody 8F5 (antibody, V domains shown)
VH: B1 VH with T23A, K52N, N53S, L64V, T106S
VL: B1 VL with H31Y, F37Y, I90V, I97T
